Measured values as given in IntAct's records for PubMed 18084303.

B1: Neuroligin-1 (Mus musculus), Q99K10-1 (parent)
chain: MALPRCMWPNYVWRAMMACVVHRGSGAPLTLCLLGCLLQTFHVLSQKLDDVDPLVTTNFGKIRGIKKELNNEILGPVIQFLGVPYAAPPTGEHRFQPPEPPSPWSDIRNATQFAPVCPQNIIDGRLPEVMLPVWFTNNLDVVSSYVQDQSEDCLYLNIYVPTEDGPLTKKHTDDLGDNDGAEDEDIRDSGGPKPVMVYIHGGSYMEGTGNLYDGSVLASYGNVIVITVNYRLGVLGFLSTGDQAAKGNYGLLDLIQALRWTSENIGFFGGDPLRITVFGSGAGGSCVNLLTLSHYSEGNRWSNSTKGLFQRAIAQSGTALSSWAVSFQPAKYARILATKVGCNVSDTVELVECLQKKPYKELVDQDVQPARYHIAFGPVIDGDVIPDDPQILMEQGEFLNYDIMLGVNQGEGLKFVENIVDSDDGVSASDFDFAVSNFVDNLYGYPEGKDVLRETIKFMYTDWADRHNPETRRKTLLALFTDHQWVAPAVATADLHSNFGSPTYFYAFYHHCQTDQVPAWADAAHGDEVPYVLGIPMIGPTELFPCNFSKNDVMLSAVVMTYWTNFAKTGDPNQPVPQDTKFIHTKPNRFEEVAWTRYSQKDQLYLHIGLKPRVKEHYRANKVNLWLELVPHLHNLNDISQYTSTTTKVPSTDITLRPTRKNSTPVTSAFPTAKQDDPKQQPSPFSVDQRDYSTELSVTIAVGASLLFLNILAFAALYYKKDKRRHDVHRRCSPQRTTTNDLTHAPEEEIMSLQMKHTDLDHECESIHPHEVVLRTACPPDYTLAMRRSPDDIPLMTPNTITMIPNTIPGIQPLHTFNTFTGGQNNTLPHPHPHPHSHSTTRV

Variants of: B1
Conditions: with NRXN1, P58400-1
NRXN1, P58400-1, sequence (P58400 other isoform, or with tags, fused parts or gaps): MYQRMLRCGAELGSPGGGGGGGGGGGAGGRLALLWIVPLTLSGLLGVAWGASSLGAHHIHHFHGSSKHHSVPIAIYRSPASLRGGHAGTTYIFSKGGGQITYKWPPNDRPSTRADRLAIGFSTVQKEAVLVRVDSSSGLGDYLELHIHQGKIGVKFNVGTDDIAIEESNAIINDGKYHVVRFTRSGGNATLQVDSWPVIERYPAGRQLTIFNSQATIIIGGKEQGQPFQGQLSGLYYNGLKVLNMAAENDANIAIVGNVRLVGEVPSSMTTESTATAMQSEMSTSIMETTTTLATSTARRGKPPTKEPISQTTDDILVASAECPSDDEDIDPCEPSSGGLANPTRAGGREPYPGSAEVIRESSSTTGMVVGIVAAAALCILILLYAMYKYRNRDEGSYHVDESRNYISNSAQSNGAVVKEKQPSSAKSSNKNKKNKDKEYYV

Row | effect of a mutation on the interaction | Variant
1 | disrupting interaction | N400A
2 | disrupting interaction | E397A
